The values below come from PMC11677393 (International Journal of Molecular Sciences, 2024).

Data set [1] concerns the molecule itself. As to the kind of experiment: crystal structure; apo GLI1(234–302), no DNA; sitting drop, 29–32% PEG3350, 0.1 M Bis-Tris pH 6.5; two molecules in the asymmetric unit, space group P65, 2.05 Å.
Data set [2] concerns the molecule itself. The data set can be described thus: SEC; Superdex 75 during purification; 20 mM HEPES pH 7.6, 500 mM NaCl, 0.1 mM TCEP; elution compared with standard proteins. For orientation: In gel filtration, larger molecules generally elute earlier.

B1: Human GLI1 truncation containing zinc finger motif 1 and 2 (residue 234–302) (domain or fragment)
chain: ETDCRWDGCSQEFDSQEQLVHHINSEHIHGERKEFVCHWGGCSRELRPFKAQYMLVVHMRRHTGEKPHK
notes: TEV protease was used to remove His-SUMO; Two zinc ions per chain; also called GLI1 Zif1-2; source: E. coli Rosetta pLysS, purified (Ni-NTA, TEV cleavage, glutathione column, HiTrap Q HP, Superdex 75); not shown: His6, N-terminal, cleaved; SUMO (yeast SMT3), N-terminal, cleaved
As to B1, the binding result in data set [1] is “binds”.

B2: GLI1(234–326) (domain or fragment, human, UniProt P08151 234-326, looked up)
chain: ETDCRWDGCSQEFDSQEQLVHHINSEHIHGERKEFVCHWGGCSRELRPFKAQYMLVVHMRRHTGEKPHKCTFEGCRKSYSRLENLKTHLRSHT
notes: a few residues of the TEV site and linker may remain at the N-terminus (surmised); also called Zif truncation with 3 Zif motifs; not shown: His6, N-terminal, cleaved; SUMO (yeast SMT3), N-terminal, cleaved
As to B2, the “stoichiometry N” value in data set [2] is 2.

B3: GLI1(234–358) (domain or fragment)
chain: not shown
notes: a few residues of the TEV site and linker may remain at the N-terminus (surmised); also called Zif truncation with 4 Zif motifs; not shown: His6, N-terminal, cleaved; SUMO (yeast SMT3), N-terminal, cleaved
As for B3, in data set [2], the “stoichiometry N” value amounted to 2.

B4: GLI1(234–388) (domain or fragment, human, UniProt P08151 234-388, looked up)
chain: ETDCRWDGCSQEFDSQEQLVHHINSEHIHGERKEFVCHWGGCSRELRPFKAQYMLVVHMRRHTGEKPHKCTFEGCRKSYSRLENLKTHLRSHTGEKPYMCEHEGCSKAFSNASDRAKHQNRTHSNEKPYVCKLPGCTKRYTDPSSLRKHVKTVHG
notes: a few residues of the TEV site and linker may remain at the N-terminus (surmised); PDB 2GLI is the cited structure of GLI1 Zif1-5 with DNA; also called Zif truncation with 5 Zif motifs; Zif1-5; not shown: His6, N-terminal, cleaved; SUMO (yeast SMT3), N-terminal, cleaved
For the protein B4, the “stoichiometry N” value in data set [2] was determined as 2.

A word on the stoichiometry N: it is the number of molecules, sites or subunits per partner or assembly.
